Experimental data published in US20170022545, “RNA MICROARRAY FOR DETECTING INTERACTION BETWEEN PROTEIN AND RNA CONTAINING A HIGHER-ORDER STRUCTURE” (KYOTO UNIVERSITY, published 2017).

B1: PoP_00014_U1A (ssRNA)
RNA: GAUAGAGCCAACUAUGCGCAGUUACCGUUUGGGAAUAUAGUGCCAUUGCACUCCGGCGCUAUAUUCCCGGA
B2: PoP_00010_U1A2 (ssRNA)
RNA: GGUGUCCAGAUUAGGCGUGCCAUACCGUUUGGGAAUAUAGUGCCGAGUCCUUCGGGACAUUGCACCGGCGCUAUAUUCCCGGA
B3: PoP_00024_hsa-let-7e loop (ssRNA)
RNA: GACGGGAUCCAAGCGCUCGUAAUAGCGGUGUACGAAGUUUCAGCAUAGUUGAGGAGGACACCCAAGGAGAUCACUAUGCUGAAGCUUCGUGCAC
B4: PoP_00022_hsa-let-7c loop (ssRNA)
RNA: GAACUGGCAAUCGCACCCACCUAAAGGGUGUACGAAGUUUCAGCGGUUUAGAGUUACACCCUGGGAGUUAACUGCUGAAGCUUCGUGCAC
B5: PoP_00027_hsa-let-7g loop (ssRNA)
RNA: GCACAAGGAGUAAGGCGCAUGUACCCGGUGUACGAAGUUUCAGCACAGUUUGAGGGUCUAUGAUACCACCCGGUACAGGAGAUAACUGUGCUGAAGCUUCGUGCAC
B6: PoP_00016_dU1A (ssRNA)
RNA: GGGGUAUAUCCUCACACUUCCCGGGCGUUUGGGAAUAUAGUGCCAUUACGGUCCGGCGCUAUAUUCCCGGA
B7: PoP_00026_hsa-let-7f-2 loop (ssRNA)
RNA: GCCUUGAUGGCCGUCAGUUCGGUUAAGGUGUACGAAGUUUCAGCAUAGUUUUAGGGUCAUACCCCAUCUUGGAGAUAACUAUGCUGAAGCUUCGUGCAC
B8: PoP_00011_dU1A2 (ssRNA)
RNA: GAGACGAGGCCCUAGAUCAUGCAUCCGUUUGGGAAUAUAGUGCCGAGUCCUUCGGGACAUUACGGCGGCGCUAUAUUCCCGGA
B9: PoP_00028_hsa-let-7i loop (ssRNA)
RNA: GAUAUGACCGCCGGCUUAGAAUAGAAGGUGUACGAAGUUUCAGCGCUGUUGGUCGGGUUGUGACAUUGCCCGCUGUGGAGAUAACUGCGCUGAAGCUUCGUGCAC
B10: PoP_00023_hsa-let-7d loop (ssRNA)
RNA: GCAAUAUCAUCGCGUGUUAAGGUGGCGGUGUACGAAGUUUCAGCAUAGUUUUAGGGCAGGGAUUUUGCCCACAAGGAGGUAACUAUGCUGAAGCUUCGUGCAC
B11: PoP_00018_hsa-let-7a-1 loop (ssRNA)
RNA: GGUGACGGGCAAAUCACUAACCACCCGGUGUACGAAGUUUCAGCAUAGUUUUAGGGUCACACCCACCACUGGGAGAUAACUAUGCUGAAGCUUCGUGCAC
B12: PoP_00021_hsa-let-7b loop (ssRNA)
RNA: GAACCGGCUACGCUAAACUUAGAACCGGUGUACGAAGUUUCAGCGUGGUUUCAGGGCAGUGAUGUUGCCCCUCGGAAGAUAACUAUGCUGAAGCUUCGUGCAC
B13: PoP_00020_hsa-let-7a-3 loop (ssRNA)
RNA: GAGAGAGGAUUCUCACUUACUGUACCGGUGUACGAAGUUUCAGCAUAGUUUGGGGCUCUGCCCUGCUAUGGGAUAACUAUGCUGAAGCUUCGUGCAC
B14: PoP_00025_hsa-let-7f-1 loop (ssRNA)
RNA: GUAAUCGAGGCGUAAGGCACAACAUAGGUGUACGAAGUUUCAGCAUAGUUGUGGGGUAGUGAUUUUACCCUGUUCAGGAGAUAACUAUGCUGAAGCUUCGUGCAC
B15: PoP_00019_hsa-let-7a-2 loop (ssRNA)
RNA: GACACGGUAGGGAAACCCACCAACUAGGUGUACGAAGUUUCAGCAUAGUUUAGAAUUACAUCAAGGGAGAUAACUGUGCUGAAGCUUCGUGCAC
B16: PoP_00008_dKt (ssRNA)
RNA: GGAUUCCACUCAAGCUUCACGGGAUAGUUUGGGAAUAUAGUGCCUGCCCGAAAGGGCGUCAUGGCGCUAUAUUCCCGGA
B17: PoP_00001_Kt (ssRNA)
RNA: GUAUAAGCGGGAGAUUCGUCCUCAUAGGUGUACGAAGUUUCAGCUGACCCGAAAGGGCGUGAUGCUGAAGCUUCGUGCAC

molecular target: T1, U1A (Homo sapiens, UniProt P09012 P09012:2-282); test: RNA microarray, 40 nM U1A; conditions: tags: Cy3-labelled (NHS ester); label: 3' pCp-Cy5; hairpin
T1 sequence (P09012 2-282, one chain of several): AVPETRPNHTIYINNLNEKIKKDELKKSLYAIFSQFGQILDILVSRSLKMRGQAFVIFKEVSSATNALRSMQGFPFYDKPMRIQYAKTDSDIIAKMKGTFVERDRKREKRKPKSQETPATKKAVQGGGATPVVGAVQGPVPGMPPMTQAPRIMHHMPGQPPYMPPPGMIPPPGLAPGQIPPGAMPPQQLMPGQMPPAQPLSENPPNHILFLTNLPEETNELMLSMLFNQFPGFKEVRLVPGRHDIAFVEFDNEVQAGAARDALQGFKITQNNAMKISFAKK
Procedure: (§1) To a 1.5-mL tube, 120 ng of Cy5-RNA probe PoP_00001 Kt, 120 ng of Cy5-RNA probe PoP_00001, 00008, 00010, 00011, 00014, 00016, PoP_00018-28 and ultrapure water were mixed and controlled to have a volume of 18 μL. Hereinafter, the same operation as described in Section 8 above was performed. Binding of the RNA probe to a target spot was confirmed based on Cy5 signal.
(§2) Subsequently, to the gasket slide on the hybridization chamber, 70 μL of 40 nM Cy3-U1A was added and a microarray slide having RNA probes bound thereto was mounted and then a hybridization chamber was assembled. Incubation was performed at room temperature for 30 minutes. The hybridization chamber was made into pieces and the microarray slide was taken out, separated from the gasket in the TBSMT buffer, washed with TBSMT buffer at room temperature for 5 minutes, and further rinsed with TBSM buffer. Thereafter, the dried microarray slide was scanned.

Binder	binding signal
B1	≥ 10 fold Cy3 signal vs other spots
B2	≥ 10 fold Cy3 signal vs other spots

molecular target: T2, L7Ae (UniProt O29494 O29494:1-119); test: RNA microarray, 5 nM L7Ae, 300 mM NaCl, 5 mM MgCl2; conditions: tags: Cy3-labelled (NHS ester); label: 3' pCp-Cy5; hairpin
T2 sequence (O29494 whole entry, one chain of several): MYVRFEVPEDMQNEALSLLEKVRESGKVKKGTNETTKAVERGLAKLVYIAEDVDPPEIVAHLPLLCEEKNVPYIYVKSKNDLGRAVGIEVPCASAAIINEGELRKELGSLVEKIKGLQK
Procedure: To a 1.5 mL tube, 120 ng of Cy5-RNA probe PoP_00001_Kt, 120 ng of Cy5-RNA probe PoP_00018-28 and ultrapure water were mixed and controlled to have a volume of 18 μL. To this, 4.5 μL of 10× Gene Expression Blocking Agent (Agilent) and 22.5 μL of 2×Hi-RPM Hybridization Buffer (Agilent) were added and mixed. The mixture solution was incubated at 100° C. for 5 minutes and subsequently on ice for 5 minutes. On the lower frame of a hybridization chamber (Agilent), a gasket slide (Agilent) was mounted. In a single well of the gasket slide, the mixture solution (45 μL) was added and the well was covered with a DNA Barcode microarray slide and then a hybridization chamber was assembled. The hybridization chamber was set at a rotor (Agilent) of a hybridization oven of 55° C. Incubation was performed for 20 hours at a rotation rate of 20 per minute. The hybridization chamber was taken out from the oven and made into pieces. […]
Subsequently, to the gasket slide on the hybridization chamber, 70 μL of 5 nM Cy3-L7Ae (controlled in concentration with TBSMT buffer (Tris-HCl 20 mM, NaCl 300 mM, 5 mM MgCl₂, 0.1% Tween-20)) was added and then a microarray slide scanned was mounted. […] In addition, Cy3 signal, which was 1.5 times as strong as that at PoP_00001_Kt, was detected at a spot of PoP_00024_hsa-let-7e.

Binder	binding signal [fold Cy3 signal vs Kt]
B3	1.5

molecular target: T2, L7Ae; test: EMSA; 50 mM HEPES-KOH pH 7.8, 100 mM KCl, on ice; conditions: tags: Cy3-labelled (NHS ester); label: 3' pCp-Cy5; hairpin
Procedure: Specific binding of DNA Barcode (bc25mer_00001) and Cy5-RNA probe (PoP_00001_Kt), and further, binding of Cy5-RNA probe (PoP_00001_Kt, PoP_00024_hsa-let-7e) and L7Ae were confirmed by EMSA as follows. First, bc25mer_00001 and PoP_00001_Kt or PoP_00024_hsa-let-7e were mixed and annealed. The composition of a reaction solution (11 μL) was as follows: 500 nM bc25mer_00001, 500 nM Cy5-RNA probe, 1× Annealing Buffer (50 mM HEPES-KOH (ph7.8), 100 mM KCl). The reaction was incubated at 95° C. for 5 minutes and at room temperature for 10 minutes. Subsequently, the DNA/RNA complex annealed and L7Ae were bound by mixing them as follows. The composition of a reaction solution (15 μL) was as follows: 0, 100, 200, 500 or 1000 nM Cy3-L7Ae, 50 nM DNA/RNA complex and 1× Annealing Buffer. Incubation was performed on ice for one hour. To the solution, 3.75 μL of a 5× dye solution (0.25% bromophenol blue, 30% glycerol) was added and mixed. The mixture solution (10 μL) was overlaid on non-denatured 15% polyacrylamide (1/30 bis-acrylamide) gel and electrophoresis was performed at 4° C. and 200 V for 60 minutes. After the electrophoresis, the gel was stained with SYBR Green I and II at room temperature for 15 minutes, and scanned by Typhoon FLA 7000 (GE Healthcare) in SYBR Green mode (600 pmt). Bands were confirmed.

Binder	binding signal [fold stronger than Kt]
B3	~10

molecular target: T1, U1A; test: RNA microarray, signal at least 10-fold below U1A2/U1A; conditions: tags: Cy3-labelled (NHS ester); label: 3' pCp-Cy5; hairpin
Procedure: as §1, §2

Binder	binding result
B4	no binding
B5	no binding
B6	no binding
B3	no binding
B7	no binding
B8	no binding
B9	no binding
B10	no binding
B11	no binding
B12	no binding
B13	no binding
B14	no binding
B15	no binding
B16	no binding

same assay, conditions: tags: Cy3-labelled (NHS ester); label: 3' pCp-Cy5; hairpin, Kt kink-turn loop

Binder	binding result
B17	no binding

molecular target: T2, L7Ae; test: RNA microarray, no Cy3 signal; conditions: tags: Cy3-labelled (NHS ester); label: 3' pCp-Cy5; hairpin
Procedure: The mixture solution was incubated at 100° C. for 5 minutes and subsequently on ice for 5 minutes. On the lower frame of a hybridization chamber (Agilent), a gasket slide (Agilent) was mounted. In a single well of the gasket slide, the mixture solution (45 μL) was added and the well was covered with a DNA Barcode microarray slide and then a hybridization chamber was assembled. The hybridization chamber was set at a rotor (Agilent) of a hybridization oven of 55° C. Incubation was performed for 20 hours at a rotation rate of 20 per minute. The hybridization chamber was taken out from the oven and made into pieces. The microarray slide was taken out, separated from the gasket in Gene Expression Wash Buffer 1 (Agilent), washed with Gene Expression Wash Buffer 1 at room temperature for 5 minutes and further washed with Gene Expression Wash Buffer 2 (Agilent) at 37° C. for 5 minutes. The dried microarray slide was scanned by a microarray scanner (Agilent) in the mode of 8×15K, c scan, AglilentHD_miRNA, two color, XDR Hi and Lo (0.05). In this manner, binding of an RNA probe to a target spot was confirmed based on Cy5 signal.
Subsequently, to the gasket slide on the hybridization chamber, 70 μL of 5 nM Cy3-L7Ae (controlled in concentration with TBSMT buffer (Tris-HCl 20 mM, NaCl 300 mM, 5 mM MgCl₂, 0.1% Tween-20)) was added and then a microarray slide scanned was mounted. A hybridization chamber was assembled and incubation was performed at room temperature for 30 minutes. The hybridization chamber was made into pieces and the microarray slide was taken out, separated from the gasket in the TBSMT buffer, washed with TBSMT buffer at room temperature for 5 minutes, and further washed with TBSM buffer (Tris-HCl 20 mM, NaCl 300 mM, 5 mM MgCl₂) at room temperature for 5 minutes. The dried microarray slide was scanned again. […] In addition, Cy3 signal, which was 1.5 times as strong as that at PoP_00001_Kt, was detected at a spot of PoP_00024_hsa-let-7e. No Cy3 signal was detected at spots of other 10 probes.

Binder	binding result
B4	no binding
B5	no binding
B7	no binding
B9	no binding
B10	no binding
B11	no binding
B12	no binding
B13	no binding
B14	no binding
B15	no binding
